A short description of this data set: soluble on expression in E. coli; label from the status in PepcDB or PDB records.
With “MGSDKIHHHHHHMVVESGFTAAQLPWLEGPRQAFLAQLTRQKMPHAQLVGIDSAYGGELLSVFMARAAMCLQPTPAGACGFCKSCQLFDAGNHPDFYHIAADGNQIKVDQIRELCTRLTATAQQSGMRVAIIHHSERLNSAAANALLKTLEEPGKDTLLILQSDTPARLMATVGSRCQRIPFVVPSREIIKNWLAQQCDIKEDVTWCLSVVGGPLQLAESLQSEGGQQSRYQSLLQFRKDWAQSLSSGHLCASLLTISEQQIIDVLKVLYLLIRQVLLKNSHQDAFIHAQLGNLAAKIMGMCHSLSTMPSVNYLALCQSYVLEYREITNK”, the “soluble on expression in E. coli” value is on record as “not soluble”.

As for “MGSDKIHHHHHHMVVTEYELKPQNFPRFPLDWSEIFGRKAKIVVEIGFGNGEFLAELARRHPEKDFVGFEVSITSFVKAQKKFKRYNLKNVRLVKVDARFGLRELFPDNSVEKVYINFPCPWPKKRHESRRITSYDFLQTLSAVLEMDGTVEFATDEEWYAREVLDTFESSEYFVVDVFEENFKRDVETRYERKWKSQGKKTFLIVARKVKNGTVKRLMEGENTMAHSVFEGNVTWEKLKELEGKVFKDKNKIFVVKKVYRDGDYLLKVISTDEGGFQQVYYLNLSGRDGKWVLKLDEGSDPYRTPALKWSLRRIPEELTAQGSP”, the “soluble on expression in E. coli” value is reported as “not soluble”.

For the sequence “MGSDKIHHHHHHMYAYHPEDIEDIKELIAQTENEQVEFKETTGQLERGMETLCAFLNGEGGTVLFGITDKGKIIGQEVADVTKRSIAEAINRLEPTANVHVFYIPLPDSSKKIIALHVENSRDNRPFCYKSRPYYRVESVTSAMPQAVYNQLLIIRDEAKYRWELFENPKLSLQDMDENEILKTVRLGIECGRLPENTGNNLSIILEKFGLLVNGVLNNAAAVLFANRELIEYPQCLLRLARFKGTDKMVFMDNQRVQGNLFQLLDSAMTFIFKHLSLSGTTEALEREEHLTIPYKAIREGIINSLCHRQFRTPGGSVGIAIYDDRVEIENPGTFPHGWDMERMKSEHCSEPRNPLIANVLYKRKLLENWGRGISLMTEECRKANLPEPEFKLANGFVILVFRYGTNNHTSTMQVPHKHHISTIQVQSLLNIMEYNTYSVKEMMELLELKNRSYFSKEYLKPAVETGVIEPIFPDQPKSPKQKYRLTEKGKALLEKR”, the “soluble on expression in E. coli” value was “not soluble”.

With “MGSDKIHHHHHHMYDVLIIGAGPAGSSLARLIGDKYKVLLIDKRDLANENPHNLAGKCCGGLLAPDAQKMIAKLGLGIPKDILVNPQLFAVRTIDLTNNLERLYQRFYLNMDREKFDRWLVSILPKKVDKKFNAVFKDFVEIPGGYEVKYIHNGQEISAKTRVIIGADGAFSKLRRFLNQDINGPEKYIAIQEWYECPHHVPYFTAIFDEEISDFYSWIIPKENYLLLGSALKPKEKAREKYELLKTKLTQRGFNFDNKIRTEGAYLYRPKKVSQFYAGRDSIALVGEAAGGISPSSAEGISYALKSSAYLAQSLEEGIDGFLDRYKLKVKGIKLNLLLKNLKSPAMYNPLLRQLAMKSGLQSIDRTE”, the “soluble on expression in E. coli” value is “not soluble”.

Consider “MGSDKIHHHHHHMYFNVYGHAGKPIIVFPSSGGSQNEYGDFGMIEACQSFIDRGVVKFYTPDSLDRESWLAEGKSGHDMALAHEAYDRYIVHELVPLIRYESNWNGMMMATGCSMGAFHTVNFSLRHPDLFDISVALSGVYDARFFTGEFYGDPAVYYNSPIDYLWNQEDSWFLDRYRRNRFIVAVGQGAWEEPHIIDTIRLKEAFEAKSIPAWFDFWGSDVAHDWEWWRVQMPYFLGKLEEEGRI”, for which the “soluble on expression in E. coli” value was “not soluble”.

On to “MGSDKIHHHHHHMYGVMIMKLKTNVFHFTPFSKKQLQVLTWWVNPSTKDSEAIICDGSVRAGKTVIMSLSYVMWAMHTFNGQQLGMAGKTIGSFRRNVLRPLKQMLAGRGYKVIDHRTDNMFEVVKNGKANYFFIFGGKDEASQDLVQGLTAAGFFFDEVALMPQSFVNQATARVSVSGGKYWFNMNPEGPYHWFKLNWIDDLKGKRALRIHFRMEDNPSLSEDVIGRYKRNYSGVFYQRYILGLWVMSEGVIYDNFNRETMVVSEPPGRCTKYYVSVDYGTQNPTVFLLWGFYNGVWYCLKEYYYDGRHSARQKTDDQYANDLDEFVGNINARIIIDPSAASFIAVLRNRHYRIIRADNDVLNGIRETQSAMNNGLIKFTDNLPNLFKELASYIWDDKASSNGEDKVIKEHDHAMDSMRYFVYMVLRHNNKAKVIKNKYF”, for which the “soluble on expression in E. coli” value is given as “not soluble”.

Take “MGSDKIHHHHHHMYIFRSIHEIINTIFVAKGLLVEMFEKRKVLSFRYSDALALLKEDENRLKILIEKEIIHQNGNFVELDARFLDFFELLLEANEEINTATVEENIEYLHELMDYYLKEKIQSRKESYVRNIKITFQKLARVTIRNIINLQHNIDNAFKHEPTYQIKIAKLQNLDKKRINIQRLIDSTEHLILHEERDFFRQATDEELTRILLELRQELQLSAHSLIRAQQDIINYLNQIKNQVILVEKIRKVKYLQDQFELRARSNLSEIMERERSLLLEGNTQASFKLSPSYLASDEVRPIILKVISNQKYREIVRKNEAGAFSEEDLEAQAMYEEVINLDEVVTAFVQSGAEARWKGEPVSDLFSFLLQYHFHREVDEKERTTFFCQIVSLYESQLEIRNEFGLHNQYEYAKIYPL”: the “soluble on expression in E. coli” value is reported as “not soluble”.

Consider “MGSDKIHHHHHHMYLKVFKEDVIDGLQKAANIIPAKTGAAYLRSIWLKAEAGMVHVLSTDSNIEFRGSYKAEVTEEGLAGVQGRAFVDLIRKLPAGEITLHLDPKTGTLGIEQGRRKYTLPTNDTAWFQNFSDYPESGSVFWSGDFLQELIDKLSFCISDEDTMEAIACMSMKPRQDNAIEACGLNGHQFAMQRFLNDDIHALLPAEGILVQKKYLMELKKWLGADEIELNIDNKRLFFRTGDKRETFSLPLSYYQYPDYTSFVSKLSTPDAGALEVNRKDMMAALDRVLIFNTDNNRCTYFDLEAGEVSLSSQGQEVGSASESLEGTYDGSLKRIAFPTRNLIEIMNHYQSDSMRFTLTGTEGPCGLTGENDPDYLVIVMPMKIVEETYYSEEEV”, for which the “soluble on expression in E. coli” value is “not soluble”.

As to “MGSDKIHHHHHHMYMIKQNFTTKVYPLKQFEGEYSEVAYAGDSQADDVIVFIHGALLTYKIMTMFEPYFRDYKLIFINCPSRGRSSDLDRDTHTLDDYAARIYDVLTQIVKEQQIKELSIVGYSMGGMIATRLLKYNTLPVSHLIYLHSAAKITPDASMLARLFTSESKRAVLKDEIKAVKNLPQYILDKTIYAQKENALDLVQFIAPIKTIITDMIYTINTDYLPDIDEIKQFPKILFMSGKEDQIIPYTDSQATLEKFKALGGETKEVIYPGIGHIDFPSVLETQSDGQTGVVDEIKAWISKK”, the “soluble on expression in E. coli” value is “not soluble”.

As to “MGSDKIHHHHHHPEQQVQQFAQLPVGFKNMGNTCYLNATLQALYRVNDLRDMILNYNPSQGVSNSGAQDEEIHKQIVIEMKRCFENLQNKSFKSVLPVVLLNTLRKCYPQFAERDSQGGFYKQQDAEELFTQLFHSMSIVFGDKFSEDFRIQFKTTIKDTANDNDITVKENESDSKLQCHISGTTNFMRNGLLEGLNEKIEKRSDLTGANSIYSVEKKISRLPKFLTVQYVRFFWKRSTNKKSKILRKVVFPFQLDVADMLTPEYAAEKVKVRDELRKVEKEKNEKEREIKRRKFDPSSSENVMTPREQYETQVALNESEKDQWLEEYKKHFPPNLEKGENPSCVYNLIGVITHQGANSESGHYQAFIRDELDENKWYKFNDDKVSVVEKEKIESLAGGGESDSALILMYKGFGL”, the “soluble on expression in E. coli” value was “soluble”.

Take “MGSDKIHHHHHHQNQPLRITIDEGIIEPLPYAAPNFVPDSPAAAEYAAEIARVLAADLTGSGLFREIPSTAYISQVTSFDAPVQFADWKAINAQALITGAVSVSGNRLTVRFRLWDVFAGAELGSGLQFAGTTDGWRRMSHKVADAVYSRITGESGYFDSRVAFVSESGPKDQRRKRLAIMDYDGANVQYLTDSSSIVLAPRFSPTGDRVLYTSYQGGFPRIHILDVGQVQQRVLQSQDGTMSFAPRFSPDGQTVLFSLAQGGNTDLYAMNIASGQSTRLTSAPSIETAPSYAPDGSRIVFESDRSGTPQLYVMSAAGGEATRISFGQGRYGTPVWSPRGDLIAFTKQSKGRFHIGVMRADGSEERLLTASFLDEGPTWSPNGRVIMFTRETQGASGRAALYSVDISGRNLRPVRTPDGGSDPSWSPLQK”: the “soluble on expression in E. coli” value is on record as “not soluble”.

For the sequence “MGSDKIHHHHHHQQLLLIEKLDGTLEDYLFSDDFDEKVLLSCLFQISFSLHYLQKHYKFTHNDLHINNVMYSETTTKYLYYKFNNQYFKIPTYGKIFKIIDFGRSIFTYNNKIYMNDVFTKNSEAWGQFYYPPQVQFLTKPPEDIPNIEPNYNFDLCRLSMTIIEEIDKSKLSENMFNFLNDMCIDKFNENYCEMEDNFSLYINISKNAINSLPEDILNKTIFKQYKVIKKNFPSKLYYK”, the “soluble on expression in E. coli” value was “not soluble”.

“MGSDKIHHHHHHQVAYFMSFAGNETFIRELVKQFGSDEVLIVYKTNVKENVLQLQQGHIIKHAIEFKKFQVTSFVKGIKLARVTLFDNYYPELSAINKTKKDYFIQMWHANGAIKAFGWEDPSTYHRSVEDQQRFQRVYDSFDQIVVGSEKMADVFQRSWHVASDKIDRIGYPRTDKYFEESWIEKARKKIQTKLPELTQKRVILYAPTYRKDVSFSLPDDWRKIKVPQDAVLIVRLHPHLANVERQIVDASPDRVIMVDHFISTQELLCVADTLITDYSSIAFDFSLLDNARSVIFFTYDLEEFERTVGIQASFKAAFLNQMVNTVEQLNDAILFGNSDKNVIHKLNQQWNTLNDGHSSARLIKQVKERCTDE”: the “soluble on expression in E. coli” value is “not soluble”.

Regarding “MGSDKIHHHHHHRVAQCCAIIDRSKIVIGFSDHGLYCIEISRQLLIPVGGEKENKQRCVETVEYDEAEQLLMMIVGPAKDRHVRIVPSAALDGRDLKWIKVNDTKGCHLLAVGTNNPGGRAGFFAVAFKKSVTIFQIDRSEKRHKKWKDLAMPGTPQSIAIFNGRLYVGFSHSFRSWSLVGVDSSPVGSGDASGAVLQHISLVNMEDTSLQFLNQQTSYEAKLIVNVPGSPDEYLLVFNMIGLYVNEMGRRSRLPEVMFPTQAKYFAYHEPYLCVFSENEVDIFNVTLAEWVQTINLRSAKPLSGDGILSTCLCNDSPIFVLLQN”, the “soluble on expression in E. coli” value was “not soluble”.

Regarding “MGSDKIHHHHHHRYSLLYVPNSFIVPGGRFREFYYWDAYWIIKGLIASDMYNTTRSMIRNLASMVDKYGFVPNGGRVYYLQRSQPPFLAAMVYELYEATNDKAFVAELLPTLLKELNFWNEKRMTDVQMNGKSFKVYQYKTASNVPRPESYRVDTQNSAKLANGADQQQFYQDLASAAESGWDFSTRWFSDYKTLTSIETTKVLPVDLNGLLCWNMDIMEYLYEQIGDTKNSQIFRNKRADFRDTVQNVFYNRTDGTWYDYNLRTQSHNPRFYTSTAVPLFTNCYNTLNTGKSQKVFDYMDKMGVFTYPGGIPTSMSQESDQQWDFPNGWSPNNHMIIEGLRKSANPEMQDKGFLIASKWVMGNFRVFYETGHMWEKYNVIGSYPQPGSGGEYDVQDGFGWSNGAILDLLLTYNDRLFVPENFVNTTVTPSVESTTKSAPKYAKLPWVLVFAFMIRQLFNY”, the “soluble on expression in E. coli” value is reported as “not soluble”.

Consider “MGSDKIHHHHHHTNEDIVKNNVNQPEKVKGNLSLVISSTSNSSRAADNEESGVTDPGIEGESTVTDAVIILNRLDENGNLTKEEFGGYLTKAQLNETTASGETIYNPFFTLANSGWYKVLVVLNPTESIEAIANSQQSTDKSKYEQIAESSYTTTGDITIAAAGQFMMVNKKEIKVDVLSNNYEDPTIKEVEVERVVSKINYVIAKPNNLYPLTVQTTDYAIAETTSGYYIYPDNKAVRLTGLHKAKNLDNDNSDVWIHEGTDGTDRRAFIKTEKTYGQTGEHIFTLLEPFPKFEYYTTSTDGELDWTVKLDKYALVNLSNSVYTARHLTDASWENCKHSASCVFLSKL”, for which the “soluble on expression in E. coli” value is reported as “not soluble”.

The values are drawn from the DeepSol protein solubility set.
